Experimental data: paper PMC9871560, “Truncated-semaphorin3A is a potential regulatory molecule to restore immune homeostasis in immune-mediated diseases” (Frontiers in Pharmacology, 2022)

B1: CD72 recombinant protein, extracellular part (amino acids 117-359) (domain or fragment, UniProt P21854 117-359, looked up)
chain: RYLQVSQQLQQTNRVLEVTNSSLRQQLRLKITQLGQSAEDLQGSRRELAQSQEALQVEQRAHQAAEGQLQACQADRQKTKETLQSEEQQRRALEQKLSNMENRLKPFFTCGSADTCCPSGWIMHQKSCFYISLTSKNWQESQKQCETLSSKLATFSEIYPQSHSYYFLNSLLPNGGSGNSYWTGLSSNKDWKLTDDTQRTRTYAQSSKCNKVHKTWSWWTLESESCRSSLPYICEMTAFRFPD
notes: CD72, extracellular part, amino acids 117-359; source: HEK293 stably expressing (lentiviral vector NSPI), purified (Ni-NTA agarose)
B2: Truncated-sema3A (T-sema3A) (domain or fragment, human, UniProt Q14563 21-516, looked up)
chain: NYQNGKNNVPRLKLSYKEMLESNNVITFNGLANSSSYHTFLLDEERSRLYVGAKDHIFSFDLVNIKDFQKIVWPVSYTRRDECKWAGKDILKECANFIKVLKAYNQTHLYACGTGAFHPICTYIEIGHHPEDNIFKLENSHFENGRGKSPYDPKLLTASLLIDGELYSGTAADFMGRDFAIFRTLGHHHPIRTEQHDSRWLNDPKFISAHLISESDNPEDDKVYFFFRENAIDGEHCGKATHARIGQICKNDFGGHRSLVNKWTTFLKARLICSVPGPNGIDTHFDELQDVFLMNFKDPKNPVVYGVFTTSSNIFKGSAVCMYSMSDVRRVFLGPYAHRDGPNYQWVPYQGRVPYPRPGTCPSKTFGGFDSTKDLPDDVITFARSHPAMYNPVFPMNNRPIVIKTDVNYQFTQIVVDRVDAEDGQYDVMFIGTDVGTVLKVVSIPKETWYDLEEVLLEEMTVFREPTAISAMELSTKQQQLYIGSTAGVAQLPLHR
notes: signal peptide in the construct; human semaphorin3A, amino acids 1-516 of the parental sema3A, with S257C to make an artificial disulfide dimerization site; Secreted into the medium; Without reducing agent it runs as a homodimer (~140 kDa double band) together with some monomer (~68 kDa); also called truncated semaphorin3A; source: HEK293 stably expressing (lentiviral vector NSPI), serum-free …
B3: Parental semaphorin3A (P-sema3A) (ligand, human, UniProt Q14563 21-771, looked up)
chain: NYQNGKNNVPRLKLSYKEMLESNNVITFNGLANSSSYHTFLLDEERSRLYVGAKDHIFSFDLVNIKDFQKIVWPVSYTRRDECKWAGKDILKECANFIKVLKAYNQTHLYACGTGAFHPICTYIEIGHHPEDNIFKLENSHFENGRGKSPYDPKLLTASLLIDGELYSGTAADFMGRDFAIFRTLGHHHPIRTEQHDSRWLNDPKFISAHLISESDNPEDDKVYFFFRENAIDGEHSGKATHARIGQICKNDFGGHRSLVNKWTTFLKARLICSVPGPNGIDTHFDELQDVFLMNFKDPKNPVVYGVFTTSSNIFKGSAVCMYSMSDVRRVFLGPYAHRDGPNYQWVPYQGRVPYPRPGTCPSKTFGGFDSTKDLPDDVITFARSHPAMYNPVFPMNNRPIVIKTDVNYQFTQIVVDRVDAEDGQYDVMFIGTDVGTVLKVVSIPKETWYDLEEVLLEEMTVFREPTAISAMELSTKQQQLYIGSTAGVAQLPLHRCDIYGKACAECCLARDPYCAWDGSACSRYFPTAKRRTRRQDIRNGDPLTHCSDLHHDNHHGHSPEERIIYGVENSSTFLECSPKSQRALVYWQFQRRNEERKEEIRVDDHIIRTDQGLLLRSLQQKDSGNYLCHAVEHGFIQTLLKVTLEVIDTEHLEELLHKDDDGDGSKTKEMSNSMTPSQKVWYRDFMQLINHPNLNTMDEFCEQVWKRDRKQRRQRPGHTPGNSNKWKHLQENKKGRNRRTHEFERAPRSV
notes: human parental semaphorin3A; Secreted into the medium; The preparation holds monomer (~95 kDa), dimer (~160 kDa) and ~70 kDa fragments from cleavage by furin; also called parental sema3A; original sema3A; source: HEK293, serum-free culture medium, purified (Ni-NTA agarose)

Key:
[1] = biological target: B2; assay: ELISA; homemade ELISA; 5 ug/mL purified CD72 coated on a MaxiSorp plate overnight at 4 C; 0-25 ug/mL purified P- or T-sema3A added for 3 h at 4 C; detected with polyclonal goat anti-sema3A and anti-goat HRP; Kd from the one site total binding equation (GraphPad Prism); conditions: both partners purified
[2] = biological target: B3; assay: as above; conditions: both partners purified
[3] = biological target: the molecule itself; assay: SDS-PAGE without reducing agent, immunoblot; purified proteins on SDS-PAGE with or without dithiothreitol, immunoblotted with polyclonal goat anti-human sema3A; monomer to disulfide-linked dimer

Binder: B1
- Kd [1]: ~4.85 nM
- Kd [2]: ~7.3 nM

Binder: B2
- stoichiometry N [3]: 2

Binder: B3
- stoichiometry N [3]: 2
